Here are results for one substance from patent US20080241867A1.

The target of this test is hybrid GFP construct containing the protease cleavage sequence SVPSGCG (SEQ ID NO:21) followed by histidine residues (Aequorea victoria (Water jellyfish) (Mesonema victoria)) [GFP: P42212]. The test is described as follows: cell-based or functional assay.

As for Pancreatin, the Micrograms of GFP Released by Protease (overnight, IMAC beads) was 137 µg.
